Patent publication US20240043568A1 (KEYMED BIOSCIENCES, published 2024)

Target: T1, FcγRI with His tag (UniProt P12314 16-288)
T1 construct: Bought protein; also called FcγRI (Sino Biological #10256-H08H)
Experiment: SPR, His-tagged FcγRI captured by anti-His antibody on the chip, antibody as analyte [row FcγRI, column GPC3×CD3 κλ002]
Procedure: 50 μg/mL His-Tag antibodies were conjugated to a CMS chip through amino groups, and recombinant proteins FcγRI, FcγRIIAH131, and FcγRIIIAV158 with His tags (Sino Biological, #10256-H08H/10374-H08H1/10389-H08H1) were respectively captured for a capture time of 40 s at a flow rate of 10 μL/min. After the baseline was stable, the gradient-diluted antibody (the initial concentration of 37.5 μg/mL, 2-fold dilution) flowed through the chip at a flow rate of 30 μL/min, with a binding time of 120 s and a dissociation time of 200 s. The affinity constants were obtained by fitting them with Biacore evaluation software. It can be seen from FIG. 22 that the GPC3×CD3κλ bispecific antibody has no binding to FcγRI, FcγRIIAH131, and FcγRIIIAV158; The wild-type IgG4 control antibody can bind to FcγRI with high affinity and weakly bind to Fcγ RIIAH131.

T1 sequence (P12314 16-288 limits assumed): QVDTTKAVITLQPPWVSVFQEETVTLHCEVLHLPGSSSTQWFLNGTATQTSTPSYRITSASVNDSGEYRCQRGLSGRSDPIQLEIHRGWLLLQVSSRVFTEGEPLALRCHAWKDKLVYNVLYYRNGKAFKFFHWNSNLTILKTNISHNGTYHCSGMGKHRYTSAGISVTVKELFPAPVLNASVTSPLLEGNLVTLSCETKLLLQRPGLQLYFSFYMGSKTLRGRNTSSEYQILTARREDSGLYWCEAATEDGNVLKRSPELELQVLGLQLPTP

B1: GPC3×CD3 κλ002 (bispecific antibody, human IgG4 S228P, kappa, lambda)
light 1: DVVMTQSPLSLPVTPGEPASISCRSSQSIVHSNGNTYLEWYLKKPGQSPQLLIYKVSNRFSGVPDRFSGSGSGTDFTLKISRVEAEDVGVYFCLQVTHVPLTFGQGTKLEIKRTVAAPSVFIFPPSDEQLKSGTASVVCLLNNFYPREAKVQWKVDNALQSGNSQESVTEQDSKDSTYSLSSTLTLSKADYEKHKVYACEVTHQGLSSPVTKSFNRGEC
heavy 1: QVQLVQSGAEVKKPGSSVKVSCKASGYTFADYEIHWVREAPGQGLEWMGAIHPGSGGTAYAQKFQGRVTLTADESSTTAYMELSSLRSEDTAVYYCTRYYSFAYWGQGTLVTVSSASTKGPSVFPLAPCSRSTSESTAALGCLVKDYFPEPVTVSWNSGALTSGVHTFPAVLQSSGLYSLSSVVTVPSSSLGTKTYTCNVDHKPSNTKVDKRVESKYGPPCPPCPAPEFEGGPSVFLFPPKPKDTLMISRTPEVTCVVVDVSQEDPEVQFNWYVDGVEVHNAKTKPREEQFNSTYRVVSVLTVLHQDWLNGKEYKCKVSNKGLASSIEKTISKAKGQPREPQVCTLPPSQEEMTKNQVSLSCAVKGFYPSDIAVEWESNGQPENNYKTTPPVLDSDGSFFLVSKLTVDKSRWQEGNVFSCSVMHEALHNHYTQKSLSLSLGK
light 2: QAVVTQEPSLTVSPGGTVTLTCRSSTGAVTTSNYANWVQEKPGQAPRGLIGGTNKRAPWTPARFSGSLLGGKAALTITGAQAEDEAEYYCVLWYSNLWVFGGGTKLTVLGQPKAAPSVTLFPPSSEELQANKATLVCLISDFYPGAVTVAWKADSSPVKAGVETTTPSKQSNNKYAASSYLSLTPEQWKSHRSYSCQVTHEGSTVEKTVAPTECS
heavy 2: EVQLVESGGGLVQPGGSLRLSCAASGFTFNTYAMNWVRKAPGKGLEWVGRIRSKYNNYATYYADSVKDRFTISRDDSKNSLYLQMNSLKTEDTAVYYCVRHGNFGNSYVSWFAYWGQGTLVTVSSASTKGPSVFPLAPCSRSTSESTAALGCLVKDYFPEPVTVSWNSGALTSGVHTFPAVLQSSGLYSLSSVVTVPSSSLGTKTYTCNVDHKPSNTKVDKRVESKYGPPCPPCPAPEFEGGPSVFLFPPKPKDTLMISRTPEVTCVVVDVSQEDPEVQFNWYVDGVEVHNAKTKPREEQFNSTYRVVSVLTVLHQDWLNGKEYKCKVSNKGLASSIEKTISKAKGQPREPQVYTLPPCQEEMTKNQVSLWCLVKGFYPSDIAVEWESNGQPENNYKTTPPVLDSDGSFFLYSKLTVDKSRWQEGNVFSCSVMHEALHNHYTQKSLSLSLGK
notes: also called GPC3 x CD3 κλ002; GPC3×CD3κλ bispecific antibody
binding result: no binding
